# Literature values as cited in patent US20200069786A1, “COMPOSITION AND PROCESS FOR PREPARING VACCINE” (TREOS BIO ZRT., priority 2018, published 2020).
# Like-named read-outs stand apart in the source and are kept apart here.
# Test system: TSA
molecule,measurement,setting,value
"PAGE1 (protein, UniProt O75459 1-146, looked up) P antigen family member 1: MGFLRRLIYRRRPMIYVESSEESSDEQPDEVESPTQSQDSTPAEEREDEGASAAQGQEPEADSQELVQPKTGCELGDGPDTKRVCLRNEEQMKLPAEGPEPEADSQEQVHPKTGCERGDGPDVQELGLPNPEEVKTPEEDEGQSQP",Expression Rate (ER) %,TSA expression rate in CRC,0%
"TTK (protein, UniProt P33981 1-857, looked up) Dual specificity protein …: MESEDLSGRELTIDSIMNKVRDIKNKFKNEDLTDELSLNKISADTTDNSGTVNQIMMMANNPEDWLSLLLKLEKNSVPLSDALLNKLIGRYSQAIEALPPDKYGQNESFARIQVRFAELKAIQEPDDARDYFQMARANCKKFAFVHISFAQFELSQGNVKKSKQLLQKAVERGAVPLEMLEIALRNLNLQKKQLLSEEEKKNLSASTVLTAQESFSGSLGHLQNRNNSCDSRGQTTKARFLYGENMPPQDAEIGYRNSLRQTNKTKQSCPFGRVPVNLLNSPDCDVKTDDSVVPCFMKRQTSRSECRDLVVPGSKPSGNDSCELRNLKSVQNSHFKEPLVSDEKSSELIITDSITLKNKTESSLLAKLEETKEYQEPEVPESNQKQWQSKRKSECINQNPAASSNHWQIPELARKVNTEQKHTTFEQPVFSVSKQSPPISTSKWFDPKSICKTPSSNTLDDYMSCFRTPVVKNDFPPACQLSTPYGQPACFQQQQHQILATPLQNLQVLASSSANECISVKGRIYSILKQIGSGGSSKVFQVLNEKKQIYAIKYVNLEEADNQTLDSYRNEIAYLNKLQQHSDKIIRLYDYEITDQYIYMVMECGNIDLNSWLKKKKSIDPWERKSYWKNMLEAVHTIHQHGIVHSDLKPANFLIVDGMLKLIDFGIANQMQPDTTSVVKDSQVGTVNYMPPEAIKDMSSSRENGKSKSKISPKSDVWSLGCILYYMTYGKTPFQQIINQISKLHAIIDPNHEIEFPDIPEKDLQDVLKCCLKRDPKQRISIPELLAHPYVQIQTHPVNQMAKGTTEEMKYVLGQLVGLNSPNSILKAAKTLYEHYSGGESHNSSSSKTFEKKRGKK",Expression Rate (ER) %,TSA expression rate in Esophageal,97%
"TEX101 (protein, UniProt Q9BY14 26-222, looked up) Testis-expressed protein 101: LYCQKGLSMTVEADPANMFNWTTEEVETCDKGALCQETILIIKAGTETAILATKGCIPEGEEAITIVQHSSPPGLIVTSYSNYCEDSFCNDKDSLSQFWEFSETTASTVSTTLHCPTCVALGTCFSAPSLPCPNGTTRCYQGKLEITGGGIESSVEVKGCTAMIGCRLMSGILAVGPMFVREACPHQLLTQPRKTEN",TSA Expression Rate (ER),BREAST,0%
"SART3 (protein, UniProt Q15020 2-963, looked up) Spliceosome associated factor …: ATAAETSASEPEAESKAGPKADGEEDEVKAARTRRKVLSRAVAAATYKTMGPAWDQQEEGVSESDGDEYAMASSAESSPGEYEWEYDEEEEKNQLEIERLEEQLSINVYDYNCHVDLIRLLRLEGELTKVRMARQKMSEIFPLTEELWLEWLHDEISMAQDGLDREHVYDLFEKAVKDYICPNIWLEYGQYSVGGIGQKGGLEKVRSVFERALSSVGLHMTKGLALWEAYREFESAIVEAARLEKVHSLFRRQLAIPLYDMEATFAEYEEWSEDPIPESVIQNYNKALQQLEKYKPYEEALLQAEAPRLAEYQAYIDFEMKIGDPARIQLIFERALVENCLVPDLWIRYSQYLDRQLKVKDLVLSVHNRAIRNCPWTVALWSRYLLAMERHGVDHQVISVTFEKALNAGFIQATDYVEIWQAYLDYLRRRVDFKQDSSKELEELRAAFTRALEYLKQEVEERFNESGDPSCVIMQNWARIEARLCNNMQKARELWDSIMTRGNAKYANMWLEYYNLERAHGDTQHCRKALHRAVQCTSDYPEHVCEVLLTMERTEGSLEDWDIAVQKTETRLARVNEQRMKAAEKEAALVQQEEEKAEQRKRARAEKKALKKKKKIRGPEKRGADEDDEKEWGDDEEEQPSKRRRVENSIPAAGETQNVEVAAGPAGKCAAVDVEPPSKQKEKAASLKRDMPKVLHDSSKDSITVFVSNLPYSMQEPDTKLRPLFEACGEVVQIRPIFSNRGDFRGYCYVEFKEEKSALQALEMDRKSVEGRPMFVSPCVDKSKNPDFKVFRYSTSLEKHKLFISGLPFSCTKEELEEICKAHGTVKDLRLVTNRAGKPKGLAYVEYENESQASQAVMKMDGMTIKENIIKVAISNPPQRKVPEKPETRKAPGGPMLLPQTYGARGKGRTQLSLLPRALQRPSAAAPQAENGPAAAPAVAAPAATEAPKMSNADFAKLFLRK",Expression Rate (ER) %,TSA expression rate in PEDIATRIC,73%
"MCAK (protein, UniProt Q99661 2-725, looked up) Kinesin-like protein KIF2C: AMDSSLQARLFPGLAIKIQRSNGLIHSANVRTVNLEKSCVSVEWAEGGATKGKEIDFDDVAAINPELLQLLPLHPKDNLPLQENVTIQKQKRRSVNSKIPAPKESLRSRSTRMSTVSELRITAQENDMEVELPAAANSRKQFSVPPAPTRPSCPAVAEIPLRMVSEEMEEQVHSIRGSSSANPVNSVRRKSCLVKEVEKMKNKREEKKAQNSEMRMKRAQEYDSSFPNWEFARMIKEFRATLECHPLTMTDPIEEHRICVCVRKRPLNKQELAKKEIDVISIPSKCLLLVHEPKLKVDLTKYLENQAFCFDFAFDETASNEVVYRFTARPLVQTIFEGGKATCFAYGQTGSGKTHTMGGDLSGKAQNASKGIYAMASRDVFLLKNQPCYRKLGLEVYVTFFEIYNGKLFDLLNKKAKLRVLEDGKQQVQVVGLQEHLVNSADDVIKMIDMGSACRTSGQTFANSNSSRSHACFQIILRAKGRMHGKFSLVDLAGNERGADTSSADRQTRMEGAEINKSLLALKECIRALGQNKAHTPFRESKLTQVLRDSFIGENSRTCMIATISPGISSCEYTLNTLRYADRVKELSPHSGPSGEQLIQMETEEMEACSNGALIPGNLSKEEEELSSQMSSFNEAMTQIRELEEKAMEELKEIIQQGPDWLELSEMTEQPDYDLETFVNKAESALAQQAKHFSALRDVIKALRLAMQLEEQASRQISSKKRPQ",Expression Rate (ER) %,TSA expression rate in CRC,100%
